# Positions count from the first letter of the chain named.
# T1: Peptide 8: Biotin-AEAAAKEAAAKEAAAKEAAAKAAA-Tyr-acid (N-terminal biotin; C-terminal acid; no PC)
# T1 construct: control peptide without PC
# T1 peptide: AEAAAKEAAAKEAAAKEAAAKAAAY
# T2: Peptide 4: Biotin-AGGGGSGGGGSGGGGSAAA-Tyr-acid (N-terminal biotin; C-terminal acid; no PC)
# T2 construct: control peptide without PC
# T2 peptide: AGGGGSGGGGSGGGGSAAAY
# B1: PcOxP_DB01_D06 (scFv, V domains shown)
# VH: EVQLLESGGGLVQPGGSLRLSCAASGFTFSDFYMEWVRQAPGKGLEWVAASRNKANDYTTEYADSVKGRFTISRDNSKNTLYLQMNSLRAEDTAVYYCARDYYGSSYWYFDSWGQGTLVTVSS
# VL: DIVMTQSPDSLAVSLGERATINCTASESLYSSKHKVHYLAWYQQKPGQPPKLLIYGASNRYIGVPDRFSGSGSGTDFTLTISSLQAEDVAVYYCAQFYIYPLTFGGGTKVEIK
# notes: scFv in periplasmic extract
# B2: PcOxP_DB01_G04 (scFv, V domains shown)
# VH: B1 VH with F32G, S112V
# VL: B1 VL with I62S, I99S
# notes: scFv in periplasmic extract
# B3: PcOxP_DB01_G07 (scFv, V domains shown)
# VH: B1 VH with F32Y, A55Y, S112V
# VL: B1 VL with S31G, I99S
# notes: scFv in periplasmic extract
# B4: PcOxP_DB01_E03 (scFv, V domains shown)
# VH: B1 VH with T28G, A49G, A55H, S112V
# VL: B1 VL with T24K, A25S, L29V, V36K, I99S
# notes: scFv in periplasmic extract
# B5: PcOxP_DB01_D11 (scFv, V domains shown)
# VH: B1 VH with D31S, F32Y, F110N, S112V
# VL: B1 VL with H34W, I99S
# notes: scFv in periplasmic extract
# B6: PcOxP_DB01_E02 (scFv, V domains shown)
# VH: B1 VH with F32Y, A55G, S112V
# VL: B1 VL with I99S
# notes: scFv in periplasmic extract
# B7: PcOxP_DB01_F01 (scFv, V domains shown)
# VH: B1 VH with T28P, S106P, S112V
# VL: B1 VL with L29V, H34N, V36K, I99T
# notes: scFv in periplasmic extract
# B8: PcOxP_DB02_A04 (scFv, V domains shown)
# VH: B1 VH with F27D, A55W, S112V
# VL: B1 VL with I99S
# notes: scFv in periplasmic extract
# B9: PcOxP_DB01_D10 (scFv, V domains shown)
# VH: B1 VH with F29D, S112V
# VL: B1 VL with I99S
# notes: scFv in periplasmic extract
# B10: PcOxP_DB01_G06 (scFv, V domains shown)
# VH: B1 VH with F32Y, A55W, S112V
# VL: B1 VL with I62S, I99S
# notes: scFv in periplasmic extract
# B11: PcOxP_DB01_F08 (scFv, V domains shown)
# VH: B1 VH with F32G, A55W, S112V
# VL: B1 VL with I62S, I99S
# notes: scFv in periplasmic extract
# B12: PcOxP_DB01_F11 (scFv, V domains shown)
# VH: B1 VH with D31S, F32Y, F110Y, S112V
# VL: B1 VL with I99S
# notes: scFv in periplasmic extract
# B13: PcOxP_DB01_H06 (scFv, V domains shown)
# VH: B1 VH with A55G, D57S, E61A, S112V
# VL: B1 VL with I62D, Q96N, I99S
# notes: scFv in periplasmic extract
# B14: PcOxP_DB01_H02 (scFv, V domains shown)
# VH: B1 VH with D31S, F32Y, S112V
# VL: B1 VL with E27S, I99S
# notes: scFv in periplasmic extract
# B15: PcOxP_DB01_G03 (scFv, V domains shown)
# VH: B1 VH with F32G, S112V
# VL: B1 VL with E27T, I99T
# notes: scFv in periplasmic extract
# B16: PcOxP_DB01_F06 (scFv, V domains shown)
# VH: B1 VH with F27D, S112V
# VL: B1 VL with T24K, A25S, E27Q, S31Y, K33S, H34N, V36K, H37N, I62G, I99R
# notes: scFv in periplasmic extract
# B17: PcOxP_DB01_G10 (scFv, V domains shown)
# VH: B1 VH with A55N, S112V
# VL: B1 VL with T24K, E27Q, V36K, I62P, I99R
# notes: scFv in periplasmic extract
# B18: PcOxP_DB01_F03 (scFv, V domains shown)
# VH: B1 VH with F32S, A55Y, S112V
# VL: B1 VL with I99S
# notes: scFv in periplasmic extract
# B19: PcOxP_DB01_E01 (scFv, V domains shown)
# VH: B1 VH with F29S, S112V
# VL: B1 VL with Y61V, Q96N, I99S
# notes: scFv in periplasmic extract
# B20: PcOxP_DB01_H01 (scFv, V domains shown)
# VH: B1 VH with D31S, F32Y, D57L, Y107T, S112V
# VL: B1 VL with I99S
# notes: scFv in periplasmic extract
# B21: PcOxP_DB01_E07 (scFv, V domains shown)
# VH: B1 VH with D31S, F32Y, S112V
# VL: B1 VL with H37D, I99S
# notes: scFv in periplasmic extract
# B22: PcOxP_DB01_E09 (scFv, V domains shown)
# VH: B1 VH with F27N, S112V
# VL: B1 VL with Q96N, I99S
# notes: scFv in periplasmic extract
# B23: PcOxP_DB01_D07 (scFv, V domains shown)
# VH: B1 VH with F32Y, S105D, S112V
# VL: B1 VL with T24K, E27Q, L29V, Y30L, H34N, K35N, H37N, I62S, I99S
# notes: scFv in periplasmic extract
# B24: PcOxP_DB01_F07 (scFv, V domains shown)
# VH: B1 VH with F27D, M34L, D57G, G104H, S112V
# VL: B1 VL with Q96H, I99S
# notes: scFv in periplasmic extract
# B25: PcOxP_DB01_E08 (scFv, V domains shown)
# VH: B1 VH with F27D, D57A, S105Q, S112V
# VL: B1 VL with I99S
# notes: scFv in periplasmic extract
# B26: PcOxP_DB01_G05 (scFv, V domains shown)
# VH: B1 VH with D31S, F32Y, D57E, S112V
# VL: B1 VL with Q96N, I99S
# notes: scFv in periplasmic extract
# B27: PcOxP_DB01_G02 (scFv, V domains shown)
# VH: B1 VH with T28L, E61T, S106H, S112V
# VL: B1 VL with Y61E, I99F
# notes: scFv in periplasmic extract
# B28: PcOxP_DB01_F12 (scFv, V domains shown)
# VH: B1 VH with F29H, D57G
# VL: B1 VL with I62V, I99S
# notes: scFv in periplasmic extract
# B29: PcOxP_DB01_H03 (scFv, V domains shown)
# VH: B1 VH with F32H, N53G, A55G, D57S, E61A, S112V
# VL: B1 VL with S58G, I99H
# notes: scFv in periplasmic extract
# B30: PcOxP_DB01_D12 (scFv, V domains shown)
# VH: B1 VH with F32Y, A55Y, S112V
# VL: B1 VL with I99S
# notes: scFv in periplasmic extract
# Target: T1, Peptide 8: …
# Assay: scFv ELISA
# In short: (§1)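 Bound scFv was read as OD450 after HRP–anti-V5 detection, TMB development and HCl stop. PPE with BSA was incubated 1 h at RT on BSA-blocked wells coated overnight at 4° C. with peptide, or on streptavidin wells loaded 1 h with biotinylated PC-peptides at 1 μg/mL.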
row,OD450 [OD450],Binder
1,0.04,B1
2,0.07,B2
3,0.04,B3
4,0.05,B4
5,0.05,B5
6,0.05,B6
7,0.05,B7
8,0.04,B8
9,0.04,B9
10,0.04,B10
11,0.04,B11
12,0.05,B12
13,0.07,B13
14,0.06,B14
15,0.05,B15
16,0.04,B16
17,0.05,B17
18,0.08,B18
19,0.04,B19
20,0.06,B20
21,0.05,B21
22,0.04,B22
23,0.04,B23
24,0.04,B24
25,0.04,B25
26,0.05,B26
27,0.04,B27
28,0.05,B28
29,0.06,B29
30,0.05,B30

# Target: T2, Peptide 4: …
# Assay: scFv ELISA
# In short: as §1
row,OD450 [OD450],Binder
1,0.04,B1
2,0.05,B2
3,0.05,B3
4,0.05,B4
5,0.06,B5
6,0.05,B6
7,0.05,B7
8,0.04,B8
9,0.05,B9
10,0.05,B10
11,0.04,B11
12,0.07,B12
13,0.05,B13
14,0.07,B14
15,0.05,B15
16,0.04,B16
17,0.05,B17
18,0.07,B18
19,0.05,B19
20,0.07,B20
21,0.05,B21
22,0.04,B22
23,0.04,B23
24,0.04,B24
25,0.05,B25
26,0.05,B26
27,0.05,B27
28,0.05,B28
29,0.07,B29
30,0.05,B30

# Target: BSA (UniProt P02769)
# Sequence (P02769 25-607 limits assumed): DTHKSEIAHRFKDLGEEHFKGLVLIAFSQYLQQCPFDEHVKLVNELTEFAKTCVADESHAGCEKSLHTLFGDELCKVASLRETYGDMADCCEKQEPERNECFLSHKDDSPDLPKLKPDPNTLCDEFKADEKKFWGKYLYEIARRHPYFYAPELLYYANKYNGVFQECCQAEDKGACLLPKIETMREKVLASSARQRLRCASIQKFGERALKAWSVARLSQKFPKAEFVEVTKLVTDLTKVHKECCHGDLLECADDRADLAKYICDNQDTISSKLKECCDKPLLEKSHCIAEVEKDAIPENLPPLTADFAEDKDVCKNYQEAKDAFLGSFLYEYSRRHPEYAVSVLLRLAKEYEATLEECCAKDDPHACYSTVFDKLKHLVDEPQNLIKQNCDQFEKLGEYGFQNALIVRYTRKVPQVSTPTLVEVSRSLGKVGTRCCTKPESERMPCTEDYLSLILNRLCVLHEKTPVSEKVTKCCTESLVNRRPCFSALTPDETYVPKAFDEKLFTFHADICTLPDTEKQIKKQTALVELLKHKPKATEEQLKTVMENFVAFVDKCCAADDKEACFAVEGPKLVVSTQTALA
# Assay: scFv ELISA
row,OD450 [OD450],Binder
1,0.06,B1
2,0.07,B2
3,0.07,B3
4,0.08,B4
5,0.08,B5
6,0.07,B6
7,0.08,B7
8,0.09,B8
9,0.06,B9
10,0.06,B10
11,0.06,B11
12,0.07,B12
13,0.11,B13
14,0.1,B14
15,0.07,B15
16,0.07,B16
17,0.1,B17
18,0.08,B18
19,0.05,B19
20,0.09,B20
21,0.07,B21
22,0.06,B22
23,0.05,B23
24,0.06,B24
25,0.06,B25
26,0.08,B26
27,0.06,B27
28,0.06,B28
29,0.1,B29
30,0.06,B30

# Target: Peptide 1: Biotin-…-[Tyr(PC)]-acid
# Assay: scFv ELISA
row,OD450 [OD450],Binder
1,0.41,B1
2,0.56,B2
3,0.46,B3
4,0.86,B4
5,1.37,B5
6,0.46,B6
7,0.6,B7
8,0.33,B8
9,0.15,B9
10,0.73,B10
11,0.52,B11
12,1.55,B12
13,0.96,B13
14,0.74,B14
15,0.43,B15
16,0.12,B16
17,0.71,B17
18,0.8,B18
19,0.75,B19
20,0.82,B20
21,0.87,B21
22,0.77,B22
23,0.14,B23
24,0.31,B24
25,0.47,B25
26,0.69,B26
27,0.82,B27
28,0.76,B28
29,0.46,B29
30,0.85,B30

# Target: Peptide 5: Biotin-…-[Tyr(PC)]-acid
# Assay: scFv ELISA
row,OD450 [OD450],Binder
1,0.69,B1
2,1.01,B2
3,1.2,B3
4,1.54,B4
5,2.09,B5
6,1.02,B6
7,1.78,B7
8,0.82,B8
9,0.44,B9
10,1.32,B10
11,1.22,B11
12,1.92,B12
13,1.79,B13
14,1.1,B14
15,0.94,B15
16,0.53,B16
17,1.52,B17
18,1.41,B18
19,1.48,B19
20,1.23,B20
21,1.51,B21
22,1.26,B22
23,0.6,B23
24,0.81,B24
25,0.82,B25
26,1.24,B26
27,1.2,B27
28,1.43,B28
29,1.29,B29
30,1.48,B30

# Source: US20250320312A1 (OXITOPE PHARMA B V, published 2025)
